Results published in the supplement of paper PMC9112550, “Optimization of the antimicrobial peptide Bac7 by deep mutational scanning” (BMC Biology, 2022).

What follows are sequences tested on Escherichia coli TOP10 (assay: shrunken log2 fold change of peptide-encoding DNA abundance (4.5 h post-induction vs induction); higher = less antimicrobial activity (less host growth inhibition)). Conditions: time post-induction: 4.5 h; library: site-saturation at positions 5, 18, 19, 20.
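Note: peptides expressed intracellularly from a pBAD plasmid library in pooled LB shake-flask culture, induced with 0.3% L-arabinose, DNA abundance read by NGS, three biological replicates, DESeq2 with apeglm shrinkage.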

Row | Sequence | shrunken log2 fold change
1 | RRIRIRPPRLPRPRPRPEEIPRP | -0.0261
2 | RRIRNRPPRLPRPRPRPCKHPRP | -0.344
3 | RRIRMRPPRLPRPRPRPICCPRP | -0.00414
4 | RRIRQRPPRLPRPRPRPGIRPRP | 0.346
5 | RRIRIRPPRLPRPRPRPAFVPRP | -0.0212
6 | RRIRKRPPRLPRPRPRPQVVPRP | -0.0176
7 | RRIRTRPPRLPRPRPRPNQWPRP | -0.0389
8 | RRIRVRPPRLPRPRPRPLRCPRP | 0.0372
9 | RRIRKRPPRLPRPRPRPHMKPRP | -0.0471
10 | RRIRTRPPRLPRPRPRPHRDPRP | 0.129
11 | RRIRYRPPRLPRPRPRPLDTPRP | -0.429
12 | RRIRARPPRLPRPRPRPNYQPRP | -0.418
13 | RRIRWRPPRLPRPRPRPFYEPRP | -0.579
14 | RRIRWRPPRLPRPRPRPQKHPRP | -0.15
15 | RRIRKRPPRLPRPRPRPVRVPRP | 0.591
16 | RRIRPRPPRLPRPRPRPSPFPRP | -0.0752
17 | RRIRRRPPRLPRPRPRPVDDPRP | -0.0484
18 | RRIRDRPPRLPRPRPRPYCLPRP | -0.0759
19 | RRIRWRPPRLPRPRPRPDFGPRP | -0.0549
20 | RRIRIRPPRLPRPRPRPWDTPRP | -0.231
21 | RRIRKRPPRLPRPRPRPNIYPRP | -0.275
22 | RRIRCRPPRLPRPRPRPSFEPRP | -0.508
23 | RRIRVRPPRLPRPRPRPRVFPRP | 0.218
24 | RRIRKRPPRLPRPRPRPVVIPRP | -0.112
25 | RRIRRRPPRLPRPRPRPLLMPRP | 0.395

Row | Sequence | shrunken log2 fold change
26 | RRIRWRPPRLPRPRPRPILLPRP | -0.0849
27 | RRIRIRPPRLPRPRPRPNEDPRP | -0.488
28 | RRIRWRPPRLPRPRPRPRISPRP | 0.305
29 | RRIRERPPRLPRPRPRPCQHPRP | -0.0915
30 | RRIRRRPPRLPRPRPRPQEEPRP | 0.0332
31 | RRIRMRPPRLPRPRPRPENPPRP | 2.79
32 | RRIRHRPPRLPRPRPRPVWAPRP | 0.193
33 | RRIRHRPPRLPRPRPRPSPRPRP | 0.0803
34 | RRIRNRPPRLPRPRPRPQWRPRP | 0.179
35 | RRIRVRPPRLPRPRPRPLSGPRP | 0.179
36 | RRIRFRPPRLPRPRPRPHKMPRP | -0.154
37 | RRIRHRPPRLPRPRPRPCPNPRP | -0.00414
38 | RRIRYRPPRLPRPRPRPQLCPRP | -0.0902
39 | RRIRMRPPRLPRPRPRPADDPRP | -0.00235
40 | RRIRNRPPRLPRPRPRPNQDPRP | -0.251
41 | RRIRARPPRLPRPRPRPVVIPRP | 0.206
42 | RRIRHRPPRLPRPRPRPSFSPRP | -0.483
43 | RRIRLRPPRLPRPRPRPQVDPRP | -0.136
44 | RRIRGRPPRLPRPRPRPTEQPRP | 0.883
45 | RRIRKRPPRLPRPRPRPMADPRP | -0.000921
46 | RRIRERPPRLPRPRPRPVTAPRP | -0.00991
47 | RRIRIRPPRLPRPRPRPSGRPRP | -0.427
48 | RRIRQRPPRLPRPRPRPMPKPRP | 0.128
49 | RRIRTRPPRLPRPRPRPYADPRP | -0.22
50 | RRIRMRPPRLPRPRPRPDMVPRP | 1.9

Row | Sequence | shrunken log2 fold change
51 | RRIRNRPPRLPRPRPRPERIPRP | -0.00936
52 | RRIRQRPPRLPRPRPRPCYHPRP | -0.947
53 | RRIRTRPPRLPRPRPRPLVYPRP | -0.917
54 | RRIRRRPPRLPRPRPRPENMPRP | 0.0592
55 | RRIRHRPPRLPRPRPRPWTEPRP | 0.0218
56 | RRIRRRPPRLPRPRPRPTKQPRP | -0.0752
57 | RRIRQRPPRLPRPRPRPIWCPRP | -0.0171
58 | RRIRCRPPRLPRPRPRPYWYPRP | -0.553
59 | RRIRHRPPRLPRPRPRPMDPPRP | -0.385
60 | RRIRGRPPRLPRPRPRPTHFPRP | 0.71
61 | RRIRARPPRLPRPRPRPRICPRP | 0.29
62 | RRIRDRPPRLPRPRPRPLRWPRP | 0.274
63 | RRIRMRPPRLPRPRPRPCTRPRP | -0.0828
64 | RRIRFRPPRLPRPRPRPWSLPRP | -0.529
65 | RRIRRRPPRLPRPRPRPAMMPRP | 0.163
66 | RRIRHRPPRLPRPRPRPDRRPRP | -0.118
67 | RRIRNRPPRLPRPRPRPTELPRP | -0.0232
68 | RRIRLRPPRLPRPRPRPVVIPRP | -0.0403
69 | RRIRARPPRLPRPRPRPYFMPRP | -0.62
70 | RRIRPRPPRLPRPRPRPENLPRP | -0.278
71 | RRIRCRPPRLPRPRPRPAILPRP | -0.659
72 | RRIRMRPPRLPRPRPRPNGGPRP | 0.112
73 | RRIRMRPPRLPRPRPRPGAPPRP | 1.31
74 | RRIRGRPPRLPRPRPRPQKDPRP | 0.346
75 | RRIRFRPPRLPRPRPRPTMAPRP | 0.185

Row | Sequence | shrunken log2 fold change
76 | RRIRTRPPRLPRPRPRPRCWPRP | 0.386
77 | RRIRPRPPRLPRPRPRPHGIPRP | 0.0828
78 | RRIRTRPPRLPRPRPRPTRTPRP | 0.767
79 | RRIRHRPPRLPRPRPRPPNHPRP | -0.442
80 | RRIRKRPPRLPRPRPRPDDLPRP | 0.0928
81 | RRIRNRPPRLPRPRPRPCYLPRP | -1.19
82 | RRIRPRPPRLPRPRPRPKLWPRP | 0.683
83 | RRIRARPPRLPRPRPRPVDDPRP | 0.469
84 | RRIRARPPRLPRPRPRPTTPPRP | 0.605
85 | RRIRKRPPRLPRPRPRPISGPRP | -7.33e-05
86 | RRIRCRPPRLPRPRPRPLSLPRP | -0.305
87 | RRIRHRPPRLPRPRPRPTWPPRP | 0.25
88 | RRIRGRPPRLPRPRPRPNIEPRP | 0.51
89 | RRIRYRPPRLPRPRPRPSCLPRP | -0.56
90 | RRIRCRPPRLPRPRPRPWTDPRP | -0.055
91 | RRIRERPPRLPRPRPRPDYDPRP | -0.021
92 | RRIRDRPPRLPRPRPRPEHLPRP | -0.00213
93 | RRIRSRPPRLPRPRPRPYVRPRP | -0.0846
94 | RRIRQRPPRLPRPRPRPWRTPRP | -0.152
95 | RRIRRRPPRLPRPRPRPQTKPRP | 0.161
96 | RRIRGRPPRLPRPRPRPPIEPRP | 0.196
97 | RRIRARPPRLPRPRPRPEEGPRP | 0.457
98 | RRIRFRPPRLPRPRPRPPTTPRP | 0.276
99 | RRIRWRPPRLPRPRPRPLDGPRP | 0.15
100 | RRIRCRPPRLPRPRPRPVMEPRP | -0.0475

Row | Sequence | shrunken log2 fold change
101 | RRIRARPPRLPRPRPRPEQLPRP | 1.47
102 | RRIRERPPRLPRPRPRPYPPPRP | -0.942
103 | RRIRQRPPRLPRPRPRPVGLPRP | 0.35
104 | RRIRQRPPRLPRPRPRPFMVPRP | -0.686
105 | RRIRNRPPRLPRPRPRPQIAPRP | -0.155
106 | RRIRKRPPRLPRPRPRPLNLPRP | -0.123
107 | RRIRVRPPRLPRPRPRPHWWPRP | 0.355
108 | RRIRNRPPRLPRPRPRPNAEPRP | 0.388
109 | RRIRVRPPRLPRPRPRPLLPPRP | 0.328
110 | RRIRFRPPRLPRPRPRPAWCPRP | 0.205
111 | RRIRRRPPRLPRPRPRPGRRPRP | 0.456
112 | RRIRVRPPRLPRPRPRPDMTPRP | -0.0435
113 | RRIRWRPPRLPRPRPRPLAFPRP | 0.153
114 | RRIRIRPPRLPRPRPRPGPAPRP | 0.383
115 | RRIRVRPPRLPRPRPRPCEKPRP | -0.0491
116 | RRIRPRPPRLPRPRPRPSFPPRP | -0.0649
117 | RRIRFRPPRLPRPRPRPKHWPRP | 0.0787
118 | RRIRYRPPRLPRPRPRPFEYPRP | -0.0492
119 | RRIRGRPPRLPRPRPRPGHKPRP | 0.173
120 | RRIRGRPPRLPRPRPRPEFVPRP | 1.15
121 | RRIRHRPPRLPRPRPRPGMSPRP | -0.0653
122 | RRIRYRPPRLPRPRPRPTGIPRP | -0.114
123 | RRIRTRPPRLPRPRPRPAHDPRP | 0.268
124 | RRIRPRPPRLPRPRPRPNIIPRP | -0.407
125 | RRIRVRPPRLPRPRPRPHNAPRP | -0.164

Row | Sequence | shrunken log2 fold change
126 | RRIRLRPPRLPRPRPRPSQYPRP | -0.504
127 | RRIRDRPPRLPRPRPRPKSIPRP | 0.114
128 | RRIRDRPPRLPRPRPRPPRTPRP | 0.389
129 | RRIRHRPPRLPRPRPRPHKFPRP | -0.636
130 | RRIRARPPRLPRPRPRPLMRPRP | 1.45
131 | RRIRTRPPRLPRPRPRPFDDPRP | 0.0564
132 | RRIRHRPPRLPRPRPRPCRCPRP | -0.271
133 | RRIRDRPPRLPRPRPRPNFTPRP | -0.0368
134 | RRIRKRPPRLPRPRPRPRGDPRP | 0.396
135 | RRIRQRPPRLPRPRPRPCSTPRP | 0.0062
136 | RRIRFRPPRLPRPRPRPYRIPRP | -0.34
137 | RRIRMRPPRLPRPRPRPSSKPRP | 1.87
138 | RRIRYRPPRLPRPRPRPMLQPRP | -0.229
139 | RRIRERPPRLPRPRPRPMCVPRP | -0.461
140 | RRIRLRPPRLPRPRPRPERDPRP | -0.189
141 | RRIRNRPPRLPRPRPRPRPMPRP | 0.522
142 | RRIRMRPPRLPRPRPRPIIGPRP | -0.00776
143 | RRIRHRPPRLPRPRPRPHQLPRP | -0.196
144 | RRIRLRPPRLPRPRPRPMQGPRP | -0.0711
145 | RRIRQRPPRLPRPRPRPGYDPRP | -0.0645
146 | RRIRYRPPRLPRPRPRPDDPPRP | -0.239
147 | RRIRLRPPRLPRPRPRPMYMPRP | -0.295
148 | RRIRHRPPRLPRPRPRPFFDPRP | -0.642
149 | RRIRCRPPRLPRPRPRPHTIPRP | -0.38
150 | RRIRWRPPRLPRPRPRPSDLPRP | -0.175
